Read-outs that look alike come from different tables or passages of the source.
T1: αS1-casein (f1-9)
T1 chain: RPKHPIKHQ

T2: β-casein (f193-209)
T2 chain: YQEPVLGPVRGPFPIIV

T3: αS1-casein (f1-9)
T3 sequence: RPKHPIKHQ

T4: β-casein (f193-209)
T4 sequence: YQEPVLGPVRGPFPIIV

B1: Lactobacillus helveticus CNRZ32 endopeptidase PepO2 (protein)
chain: MNLAKIRGGAGDITKPDLNARIQDNLYLAVNSDWISKAKIPADRPLISSFSEIDLKIEKELMNDLADFASGKKALPDIPNFDKAIEVYKLAKDFAKRDADGFQPAQADLETLINLKDVDDVKQNLAKLLLRFSFPFLFEVEPDRKNTKTNSLSFDRNSLILPDTTSYQSPSAKQLLDVWQKQTENLLKMAGVEEAAAKKYATDAIALDAKIVKVAKSAEERADDVALYNPIKTNEFEEKTSSLNLGQLLEQLFEKKPNYVVVSEPKFLDHFNELFNQESFDELKGWLISIFINKAAAFLSEEFRQAAFPFKQATYGQKELPSQEKEAYYKANNLFDDVIGVYYGRTYFGEDAKADVEDMIHRMIDVYEQRITNNEWLSPATKEKAITKLRALVLKIGYPNKIDHVYDLFQVTPANEGGNLYSNQANIREVSLKHNFDKLYKPVDRSEWYMPGNLINACYDPQRNDITFPAAILEAPFYDINASRATNYGGIGVVIAHEISHAFDNNGAKYDEFGNMKNWWTKEDFAEFEKRTQAEIDLFDGIKYGPVTLNGKQIVSENIADQGGLTAGIEANKNEHGDMKELFENYARIWASKESPEIIKTIAAFDVHAPGPVRVNVQVQCQPEFYKAFNVQEGDGMWLDPAKRVVI
B2: Lactobacillus helveticus CNRZ32 PepO2 expressed as PpepO3:pepO2 translational fusion in Lactococcus lactis LM0230 (pSUW665) (enzyme)
chain: B1 chain
modifications: PpepO3 start and BamHI junction residues
B3: Lactobacillus helveticus CNRZ32 endopeptidase PepE2 (protein)
chain: MKHELTMAEIAKFQQEYKKEPQNRVAELAVVNNGVQKASFNTEGIRKLNRTFSIEIPTDNVTDQKQSGRCWLFAALNTLRHGFAKKYNTKNFTFSQNYLFFWDRVERANIFFDNILNTADKPLGDRTVHTYMQGPDADGGQWAMAVSLIRKYGLVPTYAQEESFTANNTAAFNRALNMKLREDGLILRKLAKENKTDEIETKRQEFLSEVYRMAVIAFGEPVQKFDLEFKDDDGKYHFDGDLTPLDFFHNYFTDDLDDYIVLFNAPDHEFDKLYALPFEDNVEGGTPVQFLNTEIDNLKEAAIKQLEAGETIWFGCDVGKDSDRQKGILSKGLYQTDTIFNIETKLSKKERLQTGASGSTHAMTLVGVDVVDGKPRQWKIENSWGAKVGEKGYFVMDDDWFNEYLFKVVVKKQYVPDKLVKIWEGEATPVEAWDSMA
B4: Lactobacillus helveticus CNRZ32 PepE expressed as PpepO3:pepE translational fusion in Lactococcus lactis LM0230 (pSUW666) (enzyme, UniProt P94870 1-438, looked up)
Aminopeptidase E: MAHELTVQELEKFSADFNKNPKNKVVARAAQRSGVLEASYNDRVQSELTRVFSTELDTDNVTNQKHSGRCWLFATLNVLRHEFGKKYKAKDFTFSQAYNFFWDKIERANMFYNRILDSADMPLDSRQVKTDLDFAGTDGGQFQMAAALVEKYGVVPSYAMPETFNTNDTTGFATALGDKLKKDALVLRKLKQEGKDDEIKKTREKFLSEVYQMTAIAVGEPPKKFDLEYRDDDKKYHLEKDLTPLEFLHKYLGGVDFDDYVVLTNAPDHEYDKLYGLPAEDNVSGSIRIKLLNVPMEYLTAASIAQLKDGEAVWFGNDVLRQMDRKTGYLDTNLYKLDDLFGVDLKMSKADRLKTGVGEVSHAMTLVGVDEDNGEVRQWKVENSWGDKSGAKGYYVMNNEWFNDYVYEVVVHKKYLTDKQKELAEGPITDLPAWDSLA
modifications: PpepO3 fusion junction residues; expressed in Lactococcus
B5: Lactobacillus helveticus CNRZ32 endopeptidase PepF (protein)
chain: MAIPTRSEVPEDLKWDLTRIFKTDQDWENAFDKAKDDVAKLSELKGSLAKSGKDLYEGLTKILAVKRDVENIYVYATMSSDVDTSNSHYLGYVSRVQSLSNQFEATTSFINPEILSIPAEKFEQFKKDEPRLADYAHYLEMITNKRPHTLPAEEEKIIADAGDAMSVSENTFNVLTNSDMEYGYVQDEDGNMEQLSNGLYSLLIQSQNRDVRKGAFNTLYASYGQFQNSLASTLSGVVKKHNYNARMHKYDSAREAALADNGVPVEVYDTLIKEVDSHLDLLHRYVALRKKILGLKDLQMWDMYVPLTGKPALSYNFEEAKKVAKEAMKPLGEDYLKHVDYIFNNRVIDPVESKGKVTGAYSGGAYDTDPYELLNWEDNIDSLYTLVHETGHSVHSWYTRHSQPYIYGNYPIFVAEIASTTNENILTEYFLDHITDPKTRAFILNHYLDSFKGTLFRQTQFAVFEQFIHEADAKGEPLTADILDDVYGQINQHYYGDSVEPGGDIALEWSRIPHFYYNFYVYQYATGFAAATALANKVVHGSQADRDAYLGYLKSGSSDYPTEIMKRAGVDMTKPDYLKDAFKTFEKRLNEFESLIGK
B6: Lactobacillus helveticus CNRZ32 endopeptidase PepO3 (protein)
chain: MTVRGGAGDITEADLSARPQDNLYLAVNSEWLKNAKIPSDRSRTSSFDGIDLNIEKELMQDFADFADGKKDLPDVPNFEKAVALYKIAKDFDRRNADGADPIQADLHEILGLRNFADFTLKAADFFKNGFPMPFDFSVEADMKNTKIHSLQFGGPGTFLPDTTTYKTPAAEKLLAVLKEQSINLLTMSGISKSEAEDYAEKALAYDAKIAKVVKSAEEWADYPATYNPISRDDFADKFKSFKMDYFLGELFAKKPERVINTEPRYLDYAEELLNEDVFAEIKAWMLVKFVNGVASSLSQEFREAAFPFSQALSGQPELPSGVKQAYHIANSDFSEVVGVYYGQTYFGAEAKADVTDMIHKMLDVYEKRIRENSWLSQATKDKAIVKLRALILKIGYPDKIEEIYDRLTVDPEASLYANEAQFGREQIKYNLEKLDQDVDRSVWLMPGNLVNACYDPQRNDLTFPAAILQKPFYDLKQSRSLNYGGIGVVIAHEISHAFDNNGAQFDEFGNMKNWWTEKDFAEFKKRTQAEIDLFDGIKYGPVTLNGKQIVSENIADQGGLTAAVEANKGEDGNMKELFENFARVWATKQLPESIKTQVSVDVHAPGPERANVQSQCQEEFYKAFDVTEHDGMWLDPEKRVVIW

Legend:
[1] = target: T1, αS1-casein (f1-9)
[2] = target: T2, β-casein (f193-209)
[3] = tested on: T3, αS1-casein (f1-9); remark: listed apart in the source
[4] = tested on: T4, β-casein (f193-209); remark: listed apart in the source

Protein | Specific activity (E. coli CFE) (nmoles substrate hydrolyzed/h/mg protein) [1] | Specific activity (E. coli CFE, control subtracted) (nmoles substrate hydrolyzed/h/mg protein) [1] | Specific activity (E. coli CFE) (nmoles substrate hydrolyzed/h/mg protein) [2] | Specific activity (E. coli CFE, control subtracted) (nmoles substrate hydrolyzed/h/mg protein) [2] | Specific activity (Lc. lactis CFE), Cheddar cheese serum [3] | Specific activity (Lc. lactis CFE), defined peptide mix [3] | Specific activity (Lc. lactis CFE), individual peptide reaction [3] | relative activity in the defined peptide mix [3] | further results
B1 | 1900 | 3700 | 290 | 290 |  |  |  |  | hydrolysis detected by RP-HPLC (pH 6.5, 37° C.) [1]: significant hydrolysis of both β-CN(f193-209) and αs1-CN(f1-9) was detected with CFEs from E. coli DH5α (pSUW99); hydrolysis detected by RP-HPLC (pH 6.5, 37° C.) [2]: significant hydrolysis of both β-CN(f193-209) and αs1-CN(f1-9) was detected with CFEs from E. coli DH5α (pSUW99)
B2 |  |  |  |  | 150 (40)^a, B | 84 (20)^b, C | 240 (10)^a, A | PepO2 had highest activity towards peptides αS1-CN (f1-9), and αS1-CN (f1-13) | Specific activity (Lc. lactis CFE), Cheddar cheese serum [4]: 120 (32)^a, A; Specific activity (Lc. lactis CFE), defined peptide mix [4]: 42 (10)^a, B; Specific activity (Lc. lactis CFE), single peptide reaction [4]: 64 (1.5)^a, B; hydrolysis in spiked Cheddar cheese serum (RP-HPLC) [4]: hydrolyzed completely within 12 hours
B3 |  |  |  |  |  |  |  |  | hydrolysis under simulated cheese ripening conditions [1]: No hydrolysis of either peptide was detected after incubation with CFE from E. coli transformed with pepE2; hydrolysis under simulated cheese ripening conditions [2]: No hydrolysis of either peptide was detected after incubation with CFE from E. coli transformed with pepE2
B4 |  |  |  |  | 31 (17)^c, C | 120 (7)^a, B | 190 (14)^a, A | PepE had highest activity towards αS1-CN (f1-9) and αS1-CN (f1-6) | 
B5 |  |  | 14 | 14 |  |  |  |  | Specific activity (E. coli CFE) [1]: -
B6 | 79 | 85 | 88 | 88 |  |  |  |  | Specific activity (Lc. lactis CFE), Cheddar cheese serum [1]: 63 (25)^b, A; Specific activity (Lc. lactis CFE), defined peptide mix [1]: 38 (9.0)^c, A; Specific activity (Lc. lactis CFE), individual peptide reaction [1]: 41 (19)^b, A; Specific activity (Lc. lactis CFE), Cheddar cheese serum [2]: 61 (23)^b, A; Specific activity (Lc. lactis CFE), defined peptide mix [2]: 40 (6.0)^a, B; Specific activity (Lc. lactis CFE), single peptide reaction [2]: 81 (7.0)^a, A; hydrolysis in spiked Cheddar cheese serum (RP-HPLC) [2]: hydrolyzed completely within 12 hours
